The record followed here is the supplement of paper PMC7125110.

First the molecules themselves.
B1: glmS ribozyme (parent)
chain: AUAAAAGCGCCAGAACUACAGAAAUGUAGUUGACGAGGAGGAGGUUUAUCGAAUUUUCGGCGGAUGCCUCCAAA

What all share (settings): with glucosamine-6-phosphate
In series [1] the parent is B1. The experiment in a line: self-cleavage kobs at 40 uM GlcN6P; higher = faster cleavage; RNA array. The procedure, abridged:
(§1)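 The measurements used barcoded ribozyme variants on sequenced MiSeq chips, transcribed in situ by E. coli RNA polymerase and tracked at 37 °C with a hybridised Cy3 probe. Glucosamine-6-phosphate, 40 μM to 10 mM in HEPES/KCl/Mg(OAc)2 buffer, was flowed in while tiles were imaged over ~14 h. Baseline-normalised signals, also normalised to non-cleaving reference variants, gave per-tile medians that were fit to one- or two-exponential decays for kobs. kcat and KM resulted from weighted Michaelis–Menten fits across concentrations.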

Series [2] covers variants of B1. The experiment in a line: self-cleavage kobs at 160 uM GlcN6P; higher = faster cleavage; RNA array. In outline: as §1
Variants of B1 are the subject of series [3]. The experiment in a line: self-cleavage kobs at 640 uM GlcN6P; higher = faster cleavage; RNA array. The procedure, abridged:
as §1

The variants in series [4] derive from B1. The experiment in a line: self-cleavage kobs at 2500 uM GlcN6P; higher = faster cleavage; RNA array. In outline:
as §1

In series [5] the parent is B1. Kind of series: self-cleavage kobs at 10000 uM GlcN6P; higher = faster cleavage; RNA array. In outline:
as §1

± gives the standard error. This sample holds only a part of the variants without activity.

With U45G C50U A53U, in the series with glucosamine-6-phosphate [1], the “self-cleavage kobs at 40 uM GlcN6P” value is < 1e-05 s⁻¹.

As to A12G G13C G32U G40A A64C, the “self-cleavage kobs at 40 uM GlcN6P” value with glucosamine-6-phosphate [1] was < 1e-05 s⁻¹.

Consider G62A A64C, for which the “self-cleavage kobs at 40 uM GlcN6P” value with glucosamine-6-phosphate [1] was < 1e-05 s⁻¹. The “self-cleavage kobs at 160 uM GlcN6P” value in the series with glucosamine-6-phosphate [2] was < 1e-05 s⁻¹. In the series with glucosamine-6-phosphate [3], the “self-cleavage kobs at 640 uM GlcN6P” value is < 1e-05 s⁻¹. Besides, the “self-cleavage kobs at 2500 uM GlcN6P” value in the series with glucosamine-6-phosphate [4] is < 1e-05 s⁻¹. The “self-cleavage kobs at 10000 uM GlcN6P” value in the series with glucosamine-6-phosphate [5] is < 1e-05 s⁻¹.

For the variant G44C G51A, in the series with glucosamine-6-phosphate [1], the “self-cleavage kobs at 40 uM GlcN6P” value was < 1e-05 s⁻¹. Besides, in the series with glucosamine-6-phosphate [2], the “self-cleavage kobs at 160 uM GlcN6P” value was < 1e-05 s⁻¹. Besides, in the series with glucosamine-6-phosphate [3], the “self-cleavage kobs at 640 uM GlcN6P” value is < 1e-05 s⁻¹. The “self-cleavage kobs at 2500 uM GlcN6P” value with glucosamine-6-phosphate [4] was < 1e-05 s⁻¹. Further, the “self-cleavage kobs at 10000 uM GlcN6P” value with glucosamine-6-phosphate [5] was < 1e-05 s⁻¹.

Regarding C10U G62A, in the series with glucosamine-6-phosphate [1], the “self-cleavage kobs at 40 uM GlcN6P” value is < 1e-05 s⁻¹. Besides, in the series with glucosamine-6-phosphate [3], the “self-cleavage kobs at 640 uM GlcN6P” value is < 1e-05 s⁻¹. Further, the “self-cleavage kobs at 10000 uM GlcN6P” value in the series with glucosamine-6-phosphate [5] is < 1e-05 s⁻¹.

In the case of G9A A33C, the “self-cleavage kobs at 40 uM GlcN6P” value in the series with glucosamine-6-phosphate [1] was < 1e-05 s⁻¹. The “self-cleavage kobs at 160 uM GlcN6P” value with glucosamine-6-phosphate [2] is < 1e-05 s⁻¹. For the same variant, the “self-cleavage kobs at 640 uM GlcN6P” value in the series with glucosamine-6-phosphate [3] is < 1e-05 s⁻¹. In addition, the “self-cleavage kobs at 2500 uM GlcN6P” value with glucosamine-6-phosphate [4] was < 1e-05 s⁻¹. Further, in the series with glucosamine-6-phosphate [5], the “self-cleavage kobs at 10000 uM GlcN6P” value is < 1e-05 s⁻¹.

Regarding G41A U49A, the “self-cleavage kobs at 40 uM GlcN6P” value in the series with glucosamine-6-phosphate [1] was < 1e-05 s⁻¹. The “self-cleavage kobs at 160 uM GlcN6P” value with glucosamine-6-phosphate [2] is < 1e-05 s⁻¹. Besides, in the series with glucosamine-6-phosphate [5], the “self-cleavage kobs at 10000 uM GlcN6P” value is < 1e-05 s⁻¹.

Regarding G59C C61G, the “self-cleavage kobs at 40 uM GlcN6P” value in the series with glucosamine-6-phosphate [1] is < 1e-05 s⁻¹. Moreover, the “self-cleavage kobs at 160 uM GlcN6P” value in the series with glucosamine-6-phosphate [2] is < 1e-05 s⁻¹. In addition, in the series with glucosamine-6-phosphate [5], the “self-cleavage kobs at 10000 uM GlcN6P” value was < 1e-05 s⁻¹.

As for G7A G37C A42U, in the series with glucosamine-6-phosphate [1], the “self-cleavage kobs at 40 uM GlcN6P” value is < 1e-05 s⁻¹. Besides, the “self-cleavage kobs at 640 uM GlcN6P” value with glucosamine-6-phosphate [3] was < 1e-05 s⁻¹. Also, the “self-cleavage kobs at 2500 uM GlcN6P” value with glucosamine-6-phosphate [4] is < 1e-05 s⁻¹. In the series with glucosamine-6-phosphate [5], the “self-cleavage kobs at 10000 uM GlcN6P” value was < 1e-05 s⁻¹.

In the case of G9A U55G, the “self-cleavage kobs at 40 uM GlcN6P” value in the series with glucosamine-6-phosphate [1] is < 1e-05 s⁻¹. For the same variant, the “self-cleavage kobs at 160 uM GlcN6P” value in the series with glucosamine-6-phosphate [2] was < 1e-05 s⁻¹.

On to G38U A52U U57G A64G, for which the “self-cleavage kobs at 40 uM GlcN6P” value in the series with glucosamine-6-phosphate [1] was < 1e-05 s⁻¹. Moreover, the “self-cleavage kobs at 10000 uM GlcN6P” value with glucosamine-6-phosphate [5] was < 1e-05 s⁻¹.

A48G C61U G66C C70U: the “self-cleavage kobs at 40 uM GlcN6P” value with glucosamine-6-phosphate [1] was < 1e-05 s⁻¹.

For the variant A14G U54G G66A, the “self-cleavage kobs at 40 uM GlcN6P” value with glucosamine-6-phosphate [1] turned out to be 0.000476 ± 0.00011 s⁻¹. The “self-cleavage kobs at 10000 uM GlcN6P” value with glucosamine-6-phosphate [5] was 0.0163 ± 0.0061 s⁻¹.

Consider C11G G35C C70G, for which the “self-cleavage kobs at 40 uM GlcN6P” value with glucosamine-6-phosphate [1] is 8.82e-05 ± 4e-05 s⁻¹.

With A53C G62A, the “self-cleavage kobs at 40 uM GlcN6P” value with glucosamine-6-phosphate [1] is < 1e-05 s⁻¹. Besides, the “self-cleavage kobs at 10000 uM GlcN6P” value with glucosamine-6-phosphate [5] was < 1e-05 s⁻¹.

Take A48U A64C C67U: the “self-cleavage kobs at 40 uM GlcN6P” value with glucosamine-6-phosphate [1] is < 1e-05 s⁻¹. Also, the “self-cleavage kobs at 640 uM GlcN6P” value with glucosamine-6-phosphate [3] was < 1e-05 s⁻¹. Further, the “self-cleavage kobs at 10000 uM GlcN6P” value with glucosamine-6-phosphate [5] is < 1e-05 s⁻¹.

Take C8U G29U: in the series with glucosamine-6-phosphate [1], the “self-cleavage kobs at 40 uM GlcN6P” value is < 1e-05 s⁻¹. The “self-cleavage kobs at 160 uM GlcN6P” value with glucosamine-6-phosphate [2] was < 1e-05 s⁻¹. Also, in the series with glucosamine-6-phosphate [3], the “self-cleavage kobs at 640 uM GlcN6P” value was < 1e-05 s⁻¹. Further, the “self-cleavage kobs at 2500 uM GlcN6P” value in the series with glucosamine-6-phosphate [4] was < 1e-05 s⁻¹. Moreover, the “self-cleavage kobs at 10000 uM GlcN6P” value in the series with glucosamine-6-phosphate [5] is < 1e-05 s⁻¹.

For G32C U65A C67A, in the series with glucosamine-6-phosphate [1], the “self-cleavage kobs at 40 uM GlcN6P” value is 0.000151 ± 3.6e-05 s⁻¹. For the same variant, the “self-cleavage kobs at 640 uM GlcN6P” value with glucosamine-6-phosphate [3] was 0.000426 ± 0.0001 s⁻¹. In addition, the “self-cleavage kobs at 10000 uM GlcN6P” value in the series with glucosamine-6-phosphate [5] was 0.00023 ± 5.9e-05 s⁻¹.

Turning to U31C U69C, the “self-cleavage kobs at 40 uM GlcN6P” value with glucosamine-6-phosphate [1] came to 4.67e-05 ± 1.5e-05 s⁻¹. The “self-cleavage kobs at 160 uM GlcN6P” value in the series with glucosamine-6-phosphate [2] is 5.62e-05 ± 1.5e-05 s⁻¹. Besides, the “self-cleavage kobs at 640 uM GlcN6P” value in the series with glucosamine-6-phosphate [3] stood at 0.000232 ± 6.2e-05 s⁻¹. Also, the “self-cleavage kobs at 2500 uM GlcN6P” value with glucosamine-6-phosphate [4] worked out at 0.00045 ± 8.2e-05 s⁻¹. Moreover, the “self-cleavage kobs at 10000 uM GlcN6P” value with glucosamine-6-phosphate [5] was determined as 0.0013 ± 0.00035 s⁻¹.

For the variant G32U G63U, in the series with glucosamine-6-phosphate [1], the “self-cleavage kobs at 40 uM GlcN6P” value was < 1e-05 s⁻¹. In addition, the “self-cleavage kobs at 2500 uM GlcN6P” value with glucosamine-6-phosphate [4] was < 1e-05 s⁻¹. Also, the “self-cleavage kobs at 10000 uM GlcN6P” value with glucosamine-6-phosphate [5] is < 1e-05 s⁻¹.

Turning to C16A U55A G63U, in the series with glucosamine-6-phosphate [1], the “self-cleavage kobs at 40 uM GlcN6P” value is < 1e-05 s⁻¹.

With G13A G41C, the “self-cleavage kobs at 40 uM GlcN6P” value with glucosamine-6-phosphate [1] was < 1e-05 s⁻¹. The “self-cleavage kobs at 640 uM GlcN6P” value with glucosamine-6-phosphate [3] is < 1e-05 s⁻¹.

For C8A A12U A33C A39G A53C C68A, the “self-cleavage kobs at 40 uM GlcN6P” value with glucosamine-6-phosphate [1] was < 1e-05 s⁻¹.
